Source: patent US20190248863A1
Values belong to the binder of their own block, whether it stands above or below them. Positions of bridges follow the written chain, without caps; N, C: chain ends. Chains are numbered I, II in the order given. No end group written: not given here.

Target: human RXFP2 (human), Q8WXD0
Experiment: cell-based or functional assay

Chain of human RXFP2 (human), Q8WXD0 (Q8WXD0 whole entry): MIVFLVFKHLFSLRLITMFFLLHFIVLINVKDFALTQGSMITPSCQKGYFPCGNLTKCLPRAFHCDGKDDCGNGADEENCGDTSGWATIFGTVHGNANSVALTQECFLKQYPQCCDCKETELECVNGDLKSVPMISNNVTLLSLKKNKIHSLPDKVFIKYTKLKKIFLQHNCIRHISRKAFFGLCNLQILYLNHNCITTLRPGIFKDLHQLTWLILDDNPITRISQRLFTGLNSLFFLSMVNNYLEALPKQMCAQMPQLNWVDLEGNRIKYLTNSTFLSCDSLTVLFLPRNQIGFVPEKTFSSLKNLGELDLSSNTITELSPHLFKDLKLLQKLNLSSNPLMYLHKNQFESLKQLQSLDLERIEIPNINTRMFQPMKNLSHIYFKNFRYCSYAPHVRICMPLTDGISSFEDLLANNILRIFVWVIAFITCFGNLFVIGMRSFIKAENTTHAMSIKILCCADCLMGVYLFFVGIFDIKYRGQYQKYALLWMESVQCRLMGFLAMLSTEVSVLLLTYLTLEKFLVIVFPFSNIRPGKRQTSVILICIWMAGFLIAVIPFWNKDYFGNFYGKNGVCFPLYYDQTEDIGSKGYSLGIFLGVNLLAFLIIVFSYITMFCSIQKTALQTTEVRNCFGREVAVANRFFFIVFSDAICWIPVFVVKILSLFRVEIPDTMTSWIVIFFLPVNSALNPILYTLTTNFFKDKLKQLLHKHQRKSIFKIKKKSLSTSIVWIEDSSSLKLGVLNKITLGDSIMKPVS

Maximal cAMP stimulation by RLX-A-AQ1-20KPEG compared to WT-RLX (percent), AVG, hRXFP2: 99%
Potency Ratio (RLX-A-AQ1-20KPEG/WT-RLX), cAMP assay: 32 fold
RLX-A-AQ1-20KPEG Potency Ratio (hRXFP1-1.0), cAMP assay: 54 fold
cAMP Assay EC50 (nM), human RXFP2/CHO-K1 cells: 174 nM
B1: RLX-A-AQ1-20KPEG (ligand)
chain 1: XLYSALANKCCHVGCTKRSLARFC
chain 2: ASWMEEVIKLCGRELVRAQIAICGMSTWS
modifications: here or on the partner: para-acetylphenylalanine (pAcF, X) at position 1 of the A chain, linked to a 20 kDa PEG via an oxime linkage

cAMP Assay EC50 (nM), human RXFP2/CHO-K1 cells: 5.5 nM
fold less potent than INSL3 (cAMP assay EC50, human RXFP2/CHO-K1 cells): 10 fold
B2: wild-type human relaxin 2 (WT-RLX) (ligand)
chain 1: QLYSALANKCCHVGCTKRSLARFC
chain 2: DSWMEEVIKLCGRELVRAQIAICGMSTWS
modifications: disulfide I:10-I:15, I:11-II:11, I:24-II:23
